Numbering of substitutions follows the chain as printed. Names and notes keep the numbering of the source. Where only a bound is given, the exact number is not on record here.

First the molecules themselves.
B1: TY24859 (antibody, human IgG4 S228P, kappa, V domains shown)
VH: EVQLVESGGGLVQPGGSLRLSCAASGFSLSTGGVGVGWIRQAPGKGLEWIGEIYHSGSTYYSPSLKSRVTISRDNSKNTLYLQLNSLRAEDTAVYYCARYGYSYYALDYWGQGTLVTVSS
VL: DIQLTQSPSSLSASVGDRVTITCSASSSVGYVQWYQQKPGKAPKLLIYDASNLETGVPSRFSGSGSGTDFTLTISSLQPEDFATYYCQQSYTSPRTFGQGTKVEIKR
notes: hIgG4/S241P
B2: TY24866 (antibody, human IgG4 S228P, kappa, V domains shown)
VH: B1 VH with S62P, G101E, Y104S, A106G
VL: DIQLTQSPSSLSASVGDRVTITCRASQDIRKFLAWYQQKPGKAPKLLIYDASSLESGVPSRFSGSGSGTDFTLTISSLQPEDFATYYCQQSYRSPRTFGQGTKVEIKR
notes: hIgG4/S241P
B3: TY24884 (antibody, human IgG4 S228P, kappa, V domains shown)
VH: QVQLVQSGAEVKKPGSSVKVSCKASGFTFSGYAIHWVRQAPGQGLEWIGQIYHSGSTYYNPSLKSRVTITADKSTSTAYMELSSLRSEDTAVYYCARSGYGGYDFDYWGQGTLVTVSS
VL: DIQLTQSPSSLSASVGDRVTITCRASQSVPRRYLAWYQQKPGKAPKLLIYAASTLQSGVPSRFSGSGSGTDFTLTISSLQPEDFATYYCQQYYRSPITFGQGTKVEIKR
notes: hIgG4/S241P
B4: TY24869 (antibody, human IgG4 S228P, kappa, V domains shown)
VH: QVQLVQSGAEVKKPGSSVKVSCKASGYSISSGYHWGWIRQAPGQGLEWIGAIYHSGSTYYSPSLKSRVTITADKSTSTAYMELSSLRSEDTAVYYCARSGLVYYAFDYWGQGTLVTVSS
VL: B2 VL with D28G, R30G, K31S, F32Y, S91Y, Y92S, R93T, R96L
notes: hIgG4/S241P
B5: TY24879 (antibody, human IgG4 S228P, kappa, V domains shown)
VH: B4 VH with A51S, S61N, V102R, Y108V
VL: B2 VL with R24A, I29V, R30S, K31T, F32A, L33V, D50A, E55Q, R96I
notes: hIgG4/S241P
B6: TY24876 (antibody, human IgG4 S228P, kappa, V domains shown)
VH: B4 VH with S30T, S99G, G100P, V102S
VL: DIQLTQSPSSLSASVGDRVTITCRASQSVSRYLAWYQQKPGKAPKLLIYDASNRATGIPSRFSGSGSGTDFTLTISSLQPEDFATYYCQQYYRSPITFGQGTKVEIKR
notes: hIgG4/S241P
B7: TY24878 (antibody, human IgG4 S228P, kappa, V domains shown)
VH: QVQLVQSGAEVKKPGSSVKVSCKASGFSLSTGGVAVAWIRQAPGQGLEWIGQIYYSGSTYYNPSLKSRVTITADKSTSTAYMELSSLRSEDTAVYYCARSSAHYYFDVWGQGTLVTVSS
VL: DIQLTQSPSSLSASVGDRVTITCRASESVDFQGISFLDWYQQKPGKAPKLLIYDASSLESGVPSRFSGSGSGTDFTLTISSLQPEDFATYYCQQSYRSPITFGQGTKVEIKR
notes: hIgG4/S241P
B8: TY24857 (antibody, human IgG4 S228P, kappa, V domains shown)
VH: B1 VH with G32S, G35A, Y100H, S103H
VL: B2 VL with R24P, I29V, R30G, K31T, F32A, L33V, S91Y, R93S, R96P
notes: hIgG4/S241P
B9: TY24860 (antibody, human IgG4 S228P, kappa, V domains shown)
VH: B1 VH with G32S, G37S, Y100K, S103Y, L107F, Q112P
VL: B2 VL with R30G, K31S, D50A, E55Q, R96P
notes: hIgG4/S241P
B10: TY24858 (antibody, human IgG4 S228P, kappa, V domains shown)
VH: EVQLVESGGGLVQPGGSLRLSCAASGYSISSGHHWTWIRQAPGKGLEWIGEIYHSGSTYYSPSLKSRVTISRDNSKNTLYLQLNSLRAEDTAVYYCARRDYGSSYFDYWGQGTLVTVSS
VL: B3 VL with P30S, R32S, Y33F, A51D, T54N, L55R, Q56A, S57T, V59I
notes: hIgG4/S241P
B11: TY24856 (antibody, human IgG4 S228P, kappa, V domains shown)
VH: B10 VH with T36S, Y101F, S103A
VL: DIQLTQSPSSLSASVGDRVTITCRASQGVGPWLAWYQQKPGKAPKLLIYAASSLQSGVPSRFSGSGSGTDFTLTISSLQPEDFATYYCQQYYSYSTFGQGTKVEIKR
notes: hIgG4/S241P
B12: TY24877 (antibody, human IgG4 S228P, kappa, V domains shown)
VH: QVQLVQSGAEVKKPGSSVKVSCKASGYTFTNYGIHWVRQAPGQGLEWIGEIYHSGSTYYSPSLKSRVTITADKSTSTAYMELSSLRSEDTAVYYCARGPLSYYALDYWGQGTLVTVSS
VL: B2 VL with D28S, K31R, A34N, S91Y, R96I
notes: hIgG4/S241P
B13: TY24855 (antibody, human IgG4 S228P, kappa, V domains shown)
VH: EVQLVESGGGLVQPGGSLRLSCAASGYSITSGHHWSWIRQAPGKGLEWIGDIYHSGSTYYNPSLKSRVTISRDNSKNTLYLQLNSLRAEDTAVYYCARKDDYYAFDYWGQGTLVTVSS
VL: B7 VL with S26P, E27Q, Q32H, I34K, D38H, S57N, L58R, E59A, S60T, V62I
notes: hIgG4/S241P

The target in one assay is Human CD28 (ELISAs of Examples 4 and 13) (human, UniProt P10747 19-152, limits assumed). Description: ELISA, blocking of CD28-CD80. Background: An ELISA detects its analyte on a solid surface through an enzyme-linked reagent.
Usually IC50 stands for the concentration that inhibits the measured activity by half. Higher therefore signals weaker potency in that assay. Molecule B1 gave an IC50 of 0.42 nM.
As for B2, the IC50 is 0.27 nM.
Molecule B3 gave an IC50 of 0.28 nM.
B4 had an IC50 of 0.55 nM.
B5 returned an IC50 of 0.42 nM.
The same measure, in the same setting: under B6 stands 0.54 nM.
On the same count and under the same terms, under B7 stands 0.35 nM.

In the next assay the target is T1, His-tagged human CD28 protein (human, UniProt P10747 19-152).
T1 construct: not shown: His tag
Kind of assay: Octet BLI, mAb captured.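 Further: Anti-human Fc biosensors captured the antibodies, then His-tagged protein analytes at 100 nM associated for 300 s and dissociated for 300 s, fitted by a 1:1 Langmuir model.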 For orientation: BLI is a label-free optical method that tracks binding on a fibre tip over time.
By Kd is commonly meant the free concentration of one partner at which half of the binding sites on the other are occupied at equilibrium, for simple one-to-one binding. Lower therefore signals tighter binding. One may read the koff as a measure of how fast the partners let go of each other. Low values mean slow dissociation, high ones fast dissociation. By kon is commonly meant a measure of how fast the partners come together. In turn, B1 returned a Kd of 2.68 nM, a koff of 0.00019 s⁻¹ and a kon of 70800 M⁻¹ s⁻¹.
As for B8, the Kd is 8.64 nM, the koff turned out to be 0.00063 s⁻¹ and the kon amounted to 72900 M⁻¹ s⁻¹.
For B9, in that order: 6.66 nM, 0.000421 s⁻¹ and 63200 M⁻¹ s⁻¹.
Turning to B2, the Kd is less than 0.001 nM, the dissociation rate constant (koff) is less than 1e-07 s⁻¹ and the kon was determined as 58000 M⁻¹ s⁻¹.
On the same counts, the results for B3 are 2.42 nM, 0.000166 s⁻¹ and 68400 M⁻¹ s⁻¹.
In turn, B10 displayed a Kd of 9.88 nM, a koff of 0.000702 s⁻¹ and a kon of 71000 M⁻¹ s⁻¹.
Molecule B11 yielded a Kd of 7.8 nM, a koff of 0.000538 s⁻¹ and a kon of 68900 M⁻¹ s⁻¹.
For B4, in that order: 2.73 nM, 0.000128 s⁻¹ and 46800 M⁻¹ s⁻¹.
The molecule B5 came in with a Kd of less than 0.001 nM, a koff of less than 1e-07 s⁻¹ and a kon of 59400 M⁻¹ s⁻¹.
On to B12, for which the Kd came out at 7.19 nM, the koff was 0.000193 s⁻¹ and the kon is 26900 M⁻¹ s⁻¹.
For B6, the Kd is less than 0.001 nM, the koff is less than 1e-07 s⁻¹ and the kon worked out at 32500 M⁻¹ s⁻¹.
On the same counts, the results for B7 are 4.21 nM, 0.000411 s⁻¹ and 97500 M⁻¹ s⁻¹.
Consider B13, for which the affinity, expressed as Kd, was 7.93 nM; the koff was found to be 0.000628 s⁻¹; the kon was 79200 M⁻¹ s⁻¹.

For the next assay, the target named is T2, His-tagged human CTLA4 protein (human, UniProt P16410 36-161, limits assumed).
T2 construct: not shown: His tag
T2 sequence (P16410 36-161 limits assumed): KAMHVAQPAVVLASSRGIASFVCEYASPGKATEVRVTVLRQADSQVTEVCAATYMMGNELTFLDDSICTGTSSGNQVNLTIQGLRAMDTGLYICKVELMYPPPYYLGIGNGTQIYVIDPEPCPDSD
Description: Octet BLI, mAb captured.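 Further: Anti-human Fc biosensors captured the antibodies, then His-tagged protein analytes at 100 nM associated for 300 s and dissociated for 300 s, fitted by a 1:1 Langmuir model.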
B1: the Kd is 6.63 nM, the off-rate constant (koff) came to 0.00311 s⁻¹ and the kon amounted to 469000 M⁻¹ s⁻¹.
On the same counts, the results for B8 are 5.44 nM, 0.00355 s⁻¹ and 652000 M⁻¹ s⁻¹.
Turning to B9, the binding result is on record as “no binding (tested: 100 nM CTLA4)”.
Molecule B2 returned a Kd of 7.64 nM, a koff of 0.004 s⁻¹ and a kon of 524000 M⁻¹ s⁻¹.
As for B3, the Kd is 6.36 nM, the koff was determined as 0.00408 s⁻¹ and the kon was 641000 M⁻¹ s⁻¹.
For B10, in that order: 7.9 nM, 0.00242 s⁻¹ and 306000 M⁻¹ s⁻¹.
On the same counts, the results for B11 are 5.13 nM, 0.00156 s⁻¹ and 304000 M⁻¹ s⁻¹.
For B4, in that order: 1.2 nM, 0.000454 s⁻¹ and 379000 M⁻¹ s⁻¹.
Regarding B5, binding was characterised by a dissociation constant (Kd) of 7.17 nM, the koff was determined as 0.00313 s⁻¹ and the kon stood at 437000 M⁻¹ s⁻¹.
For the molecule B12, the Kd came to 13.2 nM, the koff was found to be 0.00311 s⁻¹ and the kon is 235000 M⁻¹ s⁻¹.
On the same counts, the results for B6 are 4.28 nM, 0.000585 s⁻¹ and 137000 M⁻¹ s⁻¹.
As for B7, the Kd worked out at 0.969 nM, the koff is 0.00041 s⁻¹ and the kon is 423000 M⁻¹ s⁻¹.
For B13, in that order: 4.02 nM, 0.00305 s⁻¹ and 760000 M⁻¹ s⁻¹.

The target in a further assay is T3, Recombinant mouse CD28-Fc (mouse, UniProt P31041 20-150).
T3 construct: not shown: Fc part
T3 sequence (P31041 20-150 limits assumed): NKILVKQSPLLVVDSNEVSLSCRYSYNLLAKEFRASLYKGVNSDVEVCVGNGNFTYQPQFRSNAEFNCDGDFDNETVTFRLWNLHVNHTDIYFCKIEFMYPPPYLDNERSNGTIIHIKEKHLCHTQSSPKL
Kind of assay: ELISA, coated CD28-Fc.
Broadly, the EC50 is the concentration that produces a half-maximal response. On to B1, for which the EC50 was more than 44.4 nM.
B2: the EC50 is more than 1.65 nM.
Same read-out and setting: next, B3: more than 44.4 nM; B4: more than 14.8 nM; B5: more than 1.65 nM.
In the case of B6, the EC50 amounted to 3.93 nM.
Same read-out and setting: next, B7: more than 14.8 nM.

A further assay addresses T4, Recombinant human CD28-Fc (human, UniProt P10747 19-152).
T4 construct: not shown: Fc part
Kind of assay: ELISA, coated CD28-Fc.
Take B1: the EC50 is 1.34 nM.
Turning to B2, the EC50 is 0.57 nM.
As to B3, the EC50 is 1.02 nM.
Still for that read-out and setting: under B4 stands 0.87 nM.
On the same count and under the same terms, under B5 stands 0.9 nM.
The same measure, in the same setting: under B6 stands 1.02 nM; under B7, 1.06 nM.

Another assay deals with T5, Human CD28 on cells (human, UniProt P10747 19-220).
T5 construct: Jurkat E6-1 cells, primary human T cells, or transfected HEK293F cells; also called CD28 on Jurkat cells; CD28 on human CD3+ T cells
Description: flow cytometry, Jurkat cells. A general note: Flow cytometry measures light scatter and fluorescence of single cells or particles in a stream.
Description: Next, the cells were washed twice with DPBS and further incubated with a APC-anti-human IgG Fc secondary antibody (1 μg/mL, 100 μL/well, Biolegend) for 30 minutes at 4° C. Finally, the cells were washed twice with DPBS and suspended in FACS buffer for flow cytometry analysis. For analysis, the Mean Fluorescence Intensity (MFI) values versus concentrations were plotted using FlowJo 10 software (FlowJo LLC) and the data were further fitted with four-parameter non-linear regression to obtain EC₅₀ values by GraphPad Prism version 7 for Windows, GraphPad Software, La Jolla California USA, www.graphpad.com.
Molecule B1 gave an EC50 of 0.97 nM.
As to B8, the EC50 was found to be 0.75 nM.
The same measure, in the same setting: next, B9: 0.78 nM; B2: 0.7 nM.
The same measure, in the same setting: next, B3: 1.09 nM; B10: 0.7 nM.
Consider B11, for which the response was half-maximal at 0.76 nM (EC50).
On the same count and under the same terms, next, B4: 1.07 nM; B5: 1.17 nM; B12: 0.79 nM.
Still for that read-out and setting: under B6 stands 0.38 nM; under B7, 0.39 nM; under B13, 0.61 nM.

The values above are taken from patent US20250257133A1 (ADAGENE PTE, published 2025).
